Patent publication US20250000944A1, “USE OF RECOMBINANT CALRETICULIN IN HAIR GROWTH, HAIR BREEDING, HAIR PROTECTION OR ANTI-HAIR LOSS AND RELATED PRODUCT” (BEIJING YITUBAIHUI BIOTECH CO., LTD, priority 2021, published 2025)
“Also recorded” adds a separate entry of the source.

B1: CRT-3: fragment (1-291 aa) of recombinantly expressed CRT, amino acid sequence SEQ ID NO: 12 (protein)
chain: EPAVYFKEQFLDGDGWTSRWIESKHKSDFGKFVLSSGKFYGDEEKDKGLQTSQDARFYALSASFEPFSNKGQTLVVQFTVKHEQNIDCGGGYVKLFPNSLDQTDMHGDSEYNIMFGPDICGPGTKKVHVIFNYKGKNVLINKDIRCKDDEFTHLYTLIVRPDNTYEVKIDNSQVESGSLEDDWDFLPPKKIKDPDASKPEDWDERAKIDDPTDSKPEDWDKPEHIPDPDAKKPEDWDEEMDGEWEPPVIQNPEYKGEWKPRQIDNPDYKGTWIHPEIDNPEYSPDPSIYAY
B2: CRT-1: recombinantly expressed full-length CRT (1-400 aa), amino acid sequence SEQ ID NO: 1, expressed in Pichia pastoris (protein)
chain: EPAVYFKEQFLDGDGWTSRWIESKHKSDFGKFVLSSGKFYGDEEKDKGLQTSQDARFYALSASFEPFSNKGQTLVVQFTVKHEQNIDCGGGYVKLFPNSLDQTDMHGDSEYNIMFGPDICGPGTKKVHVIFNYKGKNVLINKDIRCKDDEFTHLYTLIVRPDNTYEVKIDNSQVESGSLEDDWDFLPPKKIKDPDASKPEDWDERAKIDDPTDSKPEDWDKPEHIPDPDAKKPEDWDEEMDGEWEPPVIQNPEYKGEWKPRQIDNPDYKGTWIHPEIDNPEYSPDPSIYAYDNFGVLGLDLWQVKSGTIFDNFLITNDEAYAEEFGNETWGVTKAAEKQMKDKQDEEQRLKEEEEDKKRKEEEEAEDKEDDEDKDEDEEDEEDKEEDEEEDVPGQAKDEL

What was measured:
[1] = system: androgenic alopecia model; experiment: First experiment: testosterone-induced androgenic alopecia model, hair observed by dermatoscope and scanning electron microscopy; assay type: in vivo, C57BL/6 male mice; details: 21 days, proteins 0.21 mg/ml injected on the back once a day, minoxidil 5% external, finasteride 13 μg/mL; for changes in hair observed by dermatoscope: compared with the model group (frizzy hair)
Procedure: Experimental animals: C57BL/6 male mice, 6-7 weeks old, weighing (20±2) g, were provided by Beijing Vital River Laboratory Animal Technology Co. Ltd., with the animal license number of SCXK (Beijing) 2021-0006. They were kept in a 12 h light/12 h dark environment, with free access to food and water. The mice were divided into normal NC group (NC), model group (Model), positive control-minoxidil group (Minoxidil), positive control-finasteride group (Finasteride), experimental group A and experimental group B. The proteins were stored in a −70° C. refrigerator and diluted with physiological saline when used. Experimental group A used rh-CRT-1, with a concentration of 0.21 mg/ml. Experimental group B used rh-CRT-2, with a concentration of 0.21 mg/ml. There were 6 mice in each group.
The main reagents used are as follows: 4% paraformaldehyde (Beijing Solarbio Technology Co., Ltd., China), isoflurane (Rayward, China), testosterone (Shanghai Standard Biotechnology Co., Ltd., China), paraffin sectioner (Thermo, USA), small animal anesthesia machine (Rayward, China), and inverted microscope (Olympus, Japan).
Modeling and drug administration: First, the androgenic alopecia model was established. One day before the modeling, the hair in the central part of the back of the experimental animal was removed with a skin preparation knife, and the prepared area was depilated with a depilatory cream. After 24 hours of depilation, the modeling agent (testosterone, 5.0 mg/mL) was subcutaneously injected into the neck of the mice in groups except the NC group, with a total dose of 0.2 mL/mouse. The mice in the NC group were injected with an equal amount of normal saline. After modeling, the mice were administrated with drugs. The NC group was injected with normal saline once a day, 0.15 mL/mouse each time. The experimental group A, experimental group B and positive control group were injected with modeling agent (testosterone), and administrated with drugs after 2 hours, and the dose of modeling agent was 0.2 mL/mouse. The experimental group A and experimental group B were injected on the back once a day, 0.15 mL/mouse each time. The positive control minoxidil group was applied 5% minoxidil externally, 0.01 mL/mouse, once a day. The positive control finasteride group was applied finasteride at a concentration of 13 μg/mL, 0.2 mL/mouse, once a day.

[2] = system: mice with androgenic alopecia; experiment: Second experiment: testosterone hair loss model, hair growth, skin blackness, scanning electron microscopy and hair follicle count; assay type: in vivo, C57BL/6 male mice; details: for hair growth on the back skin: 17th day, 0.15 mL/mouse once a day; for blackness of the back skin (color tester): Day 17; for blackness of the back skin (color tester) / number of hair follicles (pathological section): P<0.01
Procedure: Experimental animals: C57BL/6 male mice, 6-7 weeks old, weighing (20±2) g, were provided by Beijing Vital River Laboratory Animal Technology Co. Ltd., with the animal license number of SCXK (Beijing) 2021-0006. They were kept in a 12 h light/12 h dark environment, with free access to food and water. The mice were divided into normal control group (normal group, NC), model group (Model), experimental group C (rh-CRT-2, with a concentration of 0.35 mg/ml) including an injection group and an external application group, experimental group D (rh-CRT-3, with a concentration of 0.21 mg/ml) including an injection group and external application group, and positive control-minoxidil group (Minoxidil). The proteins were stored in a −70° C. refrigerator and diluted with physiological saline when used. There were 6 mice in each group.
Modeling and drug administration: First, the hair loss model was established. One day before the modeling, the hair in the center of the back of the experimental animal was removed with a skin preparation knife, and the prepared skin area was depilated with a depilatory cream. After 24 hours of depilation, the normal control group was given 75% ethanol, and other groups were injected with testosterone solution (5 mg/mL) prepared with 75% ethanol, 0.01 mL/mouse. Two hours later, the injection groups of experimental group C and experimental group D were injected on the back, 0.15 mL/mouse, once a day, for 17 consecutive days; the external application groups of experimental group C and experimental group D were applied on the back, 0.15 mL/mouse, once a day, for 17 consecutive days. The normal control group and the model group were externally applied with physiological saline, once a day, 0.15 mL/mouse, for 17 consecutive days. During the drug administration process, except for the normal control group, all other groups were injected with the modeling agent (testosterone), and administrated with drugs after 2 hours. […] After the experiment, the mouse skin was pathologically sectioned as follows: The skin pathological tissue was fixed in 4% paraformaldehyde, trimmed, dehydrated and transparent, and then embedded. The slices were cut with a thickness of 6 μm using a paraffin slicer, and further dewaxed, stained, dehydrated, transparent and sealed. The hair follicles in different areas were observed under an optical microscope, and the number of hair follicles was statistically analyzed.
Scanning electron microscopy observation: At the end of the experiment, hair shafts were randomly plucked from the newly formed hair area on the back of each group of mice. Three mice were selected from each group. The plucked hair shafts were fixed and the changes of hair shafts and hair cuticles were observed by scanning electron microscopy.
Statistical analysis: All data were processed using SPSS 17.0 software. One-way ANOVA was used for comparisons among multiple groups. Data were expressed as mean±standard deviation (x±s). P<0.05 was considered statistically significant, and P>0.05 was not considered statistically significant.

[3] = system: AGA (androgen alopecia) model mice; experiment: Fourth experiment: hair growth score in DHT-induced AGA model mice; assay type: in vivo, C57BL/6N male mice; details: Day 17; for hair growth score compared with the Model group: external application 100 μL, CRT 0.35 mg/ml, MNX 5 mg/ml
Procedure: The experimental animals were the same as in the third experiment.
The AGA model was established in the same manner as the third experiment, and the administration was carried out as follows: The AGA model was established by injecting dihydrotestosterone into the experimental mice. Dihydrotestosterone (DHT) solution was injected subcutaneously at multiple points every day, 100 μL/mouse (5 mg/kg body weight), and then the drug was administered after 3 h of absorption. CRT-3 and CRT-1 protein solutions were applied externally. 100 μL of protein solution was applied, and 100 μl of minoxidil MNX was applied. The solvent formula comprised 50% ethanol, 20% propylene glycol, and 30% pure water.
The scoring criteria and scoring process were the same as those in the third experiment.

[4] = system: AGA (androgenic alopecia) model mice; experiment: Third experiment: hair growth score in DHT-induced AGA model mice; assay type: in vivo, C57BL/6N male mice; details: Day 17
Procedure: C57BL/6N male mice, 6-7 weeks old, weighing (18-20) g, 50 mice, with the animal license number of SCXK (Beijing) 2021-0006, were kept in a 12 h light/12 h dark environment, with free access to food and water. Adaptive feeding was performed for about 1 week.
The hair in an area of about 2 cm×3 cm at the border of the spine was shaved using an electric shaver. The depilatory area was applied with 8% sodium sulfide solution. After 90±10 s, the depilatory area on the back was cleaned with cotton balls dipped in water, the residual sodium sulfide was washed away with a washing bottle, and then the mice were wiped dry. Because the hair follicle cycle of mice was in the resting phase at this time, the mouse skin was pink. Mice were randomly divided into groups using Excel software, 10 mice in each group, and the modeling was established after 24 h and the drug was administered for 17 consecutive days. The AGA model was established by injecting dihydrotestosterone into the experimental mice. Dihydrotestosterone (DHT) solution was injected subcutaneously at multiple points every day, 100 μL/mouse (5 mg/kg body weight), and then the drug was administered after 3 h of absorption. CRT-2 and CRT-1 protein solutions were applied externally. 100 μL of protein solution was applied, and 100 μl of minoxidil MNX was applied. The CRT and MNX combination group was first applied with CRT-2 protein solution and then MNX 2 hours later. The solvent formula comprised 50% ethanol, 20% propylene glycol, and 30% pure water.
Scoring was based on the coverage of hair growth: • 0 points: no hair growth, pink in the hair removal area; • 1 point: gray in the hair removal area, hair coverage area E<20%; • 2 points: black in the hair removal area, hair coverage area 20%<E<40%; • 3 points: black in the hair removal area with a little hair growth, hair coverage area 40%<E<60%; • 4 points: black in the hair removal area with some hair growth, hair coverage area 60%<E<80%; • 5 points: black in the hair removal area, hair coverage area 80%<E<100%.
The skin color changes of mice were observed before administration every day. The hair removal time of mice was designated as Day 0, the first day of administration was designated as Day 1, and so on. The hair growth of each mouse was recorded and analyzed on Day 7, Day 9, Day 11, Day 13, Day 15, and Day 17.

[5] = external application group, compared with the model group
[6] = injection group, compared with the model group

Molecule | changes in hair observed by dermatoscope [1] | hair cuticles observed by scanning electron microscopy [1] | hair growth on the back skin ([2]; external application group) | hair growth on the back skin ([2]; injection group) | blackness of the back skin (color tester) [2, 5] | blackness of the back skin (color tester) [2, 6] | hair cuticles under scanning electron microscopy [2, 5] | hair shafts under scanning electron microscopy [2, 5] | number of hair follicles (pathological section) [2, 5] | hair cuticles under scanning electron microscopy ([2]; injection group) | hair shafts under scanning electron microscopy ([2]; injection group) | number of hair follicles (pathological section) [2, 6] | hair growth score compared with the Model group ([3]; P<0.05) | hair growth score compared with the CRT-1 group ([3]; external application, P<0.05) | hair growth score compared with the Model group ([4]; external application 100 μL, CRT 0.35 mg/ml, MNX 5 mg/ml, P<0.05) | hair growth score compared with MNX ([4]; external application, P>0.05) | hair growth score compared with MNX ([3]; external application, P>0.05)
CC(C)(C)NC(=O)[C@H]1CC[C@H]2[C@@H]3CC[C@H]4NC(=O)C=C[C@]4(C)[C@H]3CC[C@]12C [finasteride, reference compound] | smooth hair | arranged neatly | – | – | – | – | – | – | – | – | – | – | – | – | – | – | –
B1 | – | – | promoted hair growth | promoted hair growth | significantly increased | significantly increased | dense | became thicker | significantly promoted | dense | thin | significantly promoted | significantly higher; also recorded: significantly increased | better than; also recorded: significantly increased | – | – | –
B2 | smoother | arranged neatly | – | – | – | – | – | – | – | – | – | – | significantly higher | – | significantly higher | no significant difference | no significant difference
